This data set can be described thus: self-splicing fitness, log relative to wild type (ln ratio); higher = more splicing; Tetrahymena group I intron in knt gene, E. coli kanamycin selection, DiMSum; sequences stand for … in CUCUCU…GGAGGGAAAAGUUAUCAGGCAUGCACCUGGUAGCUAGUCUUUAAACCAAUAGAUUGCAUCGGUUUAAAAGGCAAGACCGUCAAAUUGCGGGAAAGGGGUCAACAGCCGUUCAGUACCAAGUCUCAGGGGAAACUUUGAGAUGGCCUUGCAAAGGGUAUGGUAAUAAGCUGACGGACAUGGUCCUAACCACGCAGCCAAGUCCUAAGUCAACAGAUCUUCUGUUGAUAUGGAUGCAGUUCACAGACUAAAUGUCGGUCGGGGAAGAUGUAUUCUUCUCAUAAGAUAUAGUCGGACCUCUCCUUAAUGGGAGCUAGCGGAUGAAGUGAUGCAACACUGGAGCCGCUGGGAACUAAUUUGUAUGCGAAAGUAUAUUGAUUAGUUUUGGAGUACUCGUGGUCG
In short, it runs like this:
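Colonies from six replicate transformations of E. coli BL21(DE3) were pooled and amplicon-sequenced on an Illumina HiSeq 2500. The library placed an intron with all eight P1ex-region nucleotides randomised inside the knt kanamycin-resistance gene on pET-22b(+), and cells grew overnight at 37°C or 30°C on LB agar with or without 25 μg/mL kanamycin (plus 100 μg/mL carbenicillin, 50 μM IPTG, 0.2% rhamnose). Fitness is the DiMSum error-weighted combination of wild-type-normalised replicate fold changes, kanamycin versus none.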

± gives the uncertainty stated by the source.

GCUUAGCAAUAUUACGCAUA: the “self-splicing fitness (ln)” value runs as follows: (30 °C) -1.58 ± 0.14; (37 °C) -0.612 ± 0.11.
For AGGGAGCAAUAUUACGCACG the same measures were -2.17 ± 0.49 and -0.794 ± 0.39.
For AGUCAGCAAUAUUACGUCGU the same measures were -0.476 ± 0.049 and -0.105 ± 0.064.
For GCAUAGCAAUAUUACGGAUA the same measures were -1.81 ± 0.22 and -0.643 ± 0.18.
Turning to UAUCAGCAAUAUUACGACUA, the “self-splicing fitness (ln)” value reads like this: (30 °C) 0.123 ± 0.068; (37 °C) 0.517 ± 0.095.
For GCAUAGCAAUAUUACGCCUC the same measures were -1.01 ± 0.23 and -0.756 ± 0.28.
UUCGAGCAAUAUUACGGGAU: the “self-splicing fitness (ln)” value is -3.04 ± 0.25 (30 °C) and -2.05 ± 0.19 (37 °C).
For CUUAAGCAAUAUUACGGUUU the same measures were -4.49 ± 0.3 and -2.88 ± 0.4.
As for CCAUAGCAAUAUUACGGCCU, the “self-splicing fitness (ln)” value (30 °C) was -3.71 ± 0.37.
For CAUUAGCAAUAUUACGCGGA, the “self-splicing fitness (ln)” value runs as follows: (30 °C) -2.93 ± 0.23; (37 °C) -1 ± 0.14.
For the sequence UUCUAGCAAUAUUACGGCAC, the “self-splicing fitness (ln)” value (37 °C) is -0.626 ± 0.23.
In the case of UGUAAGCAAUAUUACGCGCA, the “self-splicing fitness (ln)” value (30 °C) was -0.603 ± 0.14 and the “self-splicing fitness (ln)” value (37 °C) is -0.167 ± 0.17.
For CAGGAGCAAUAUUACGGAAU the same measures were -2.62 ± 0.29 and -2.58 ± 0.39.
For UCUGAGCAAUAUUACGCGGA the same measures were -3.6 ± 0.27 and -2.66 ± 0.21.
Regarding GCAGAGCAAUAUUACGUUCC, the “self-splicing fitness (ln)” value (37 °C) was -1.51 ± 0.29.
As to GAAAAGCAAUAUUACGCCCG, the “self-splicing fitness (ln)” value (30 °C) was -0.583 ± 0.14 and the “self-splicing fitness (ln)” value (37 °C) is -0.75 ± 0.21.
For CAUCAGCAAUAUUACGGUGU the same measures were -4.64 ± 0.27 and -1.77 ± 0.12.
For GUCGAGCAAUAUUACGUCAG the same measures were -3.08 ± 0.16 and -2.98 ± 0.19.
For CACCAGCAAUAUUACGGGGA the same measures were -1.7 ± 0.062 and -0.764 ± 0.067.
Regarding CUCCAGCAAUAUUACGUACA, the “self-splicing fitness (ln)” value runs as follows: (30 °C) -3.85 ± 0.19; (37 °C) -2.08 ± 0.2.
Regarding CAUGAGCAAUAUUACGGGAU, the “self-splicing fitness (ln)” value (30 °C) is -3.49 ± 0.3.
As for CUAGAGCAAUAUUACGUGGU, the “self-splicing fitness (ln)” value is, setting by setting: (30 °C) -4.21 ± 0.24; (37 °C) -3.52 ± 0.33.
Turning to CAAAAGCAAUAUUACGGACG, the “self-splicing fitness (ln)” value is -0.163 ± 0.059 (30 °C) and 0.223 ± 0.079 (37 °C).
For AUUGAGCAAUAUUACGUUUA the same measures were -2.83 ± 0.19 and -2.98 ± 0.27.
For AUUUAGCAAUAUUACGCGCU the same measures were -0.923 ± 0.18 and -0.889 ± 0.15.
As for GCCUAGCAAUAUUACGGAGG, the “self-splicing fitness (ln)” value reads like this: (30 °C) -2.47 ± 0.29; (37 °C) -2.65 ± 0.28.
For UCAAAGCAAUAUUACGCGCA the same measures were -0.442 ± 0.066 and -0.207 ± 0.077.
With UCACAGCAAUAUUACGAGUG, the “self-splicing fitness (ln)” value (30 °C) is -2.04 ± 0.09 and the “self-splicing fitness (ln)” value (37 °C) was -0.607 ± 0.09.
For UAAAAGCAAUAUUACGGCUU the same measures were -0.922 ± 0.088 and -0.468 ± 0.11.
For UGGCAGCAAUAUUACGCUAU the same measures were -3.89 ± 0.25 and -1.8 ± 0.2.
For CGUAAGCAAUAUUACGCCUC the same measures were -4.31 ± 0.47 and -1.44 ± 0.44.
Consider GACCAGCAAUAUUACGCACU, for which the “self-splicing fitness (ln)” value was -0.104 ± 0.06 (30 °C) and 0.195 ± 0.079 (37 °C).
Take UAAGAGCAAUAUUACGAUCA: the “self-splicing fitness (ln)” value (30 °C) was -2.23 ± 0.29 and the “self-splicing fitness (ln)” value (37 °C) was -0.554 ± 0.19.
As to GUGGAGCAAUAUUACGCUUA, the “self-splicing fitness (ln)” value (30 °C) is -1.86 ± 0.14 and the “self-splicing fitness (ln)” value (37 °C) was -1.04 ± 0.22.
For UUGAAGCAAUAUUACGGGCA the same measures were 0.114 ± 0.11 and 0.502 ± 0.13.
For AUCAAGCAAUAUUACGUCGA the same measures were -1.36 ± 0.068 and -0.157 ± 0.068.
For the sequence GGGUAGCAAUAUUACGACGC, the “self-splicing fitness (ln)” value (30 °C) is -1.08 ± 0.14 and the “self-splicing fitness (ln)” value (37 °C) was 0.108 ± 0.25.
For UUCCAGCAAUAUUACGUGAG the same measures were 0.114 ± 0.062 and 0.597 ± 0.08.
For GCUAAGCAAUAUUACGCUGA the same measures were -1.48 ± 0.18 and -1.02 ± 0.2.
For UCUCAGCAAUAUUACGUCUA the same measures were -2.95 ± 0.28 and -1.38 ± 0.15.
On to AACUAGCAAUAUUACGAUUC, for which the “self-splicing fitness (ln)” value (30 °C) is -1.81 ± 0.094 and the “self-splicing fitness (ln)” value (37 °C) is -0.882 ± 0.11.
Take UCCAAGCAAUAUUACGUUUU: the “self-splicing fitness (ln)” value (30 °C) was -4 ± 0.13 and the “self-splicing fitness (ln)” value (37 °C) is -2.91 ± 0.14.
For GUAUAGCAAUAUUACGGCAA the same measures were -0.453 ± 0.39 and -0.521 ± 0.35.
For UUAUAGCAAUAUUACGUGUU the same measures were -4.16 ± 0.33 and -3.11 ± 0.33.
For UAUAAGCAAUAUUACGAGAU the same measures were -4.28 ± 0.31 and -2.54 ± 0.28.
Regarding GCGAAGCAAUAUUACGAAAU, the “self-splicing fitness (ln)” value runs as follows: (30 °C) -3.46 ± 0.35; (37 °C) -1.07 ± 0.22.
For UUAUAGCAAUAUUACGGGGU the same measures were -2.93 ± 0.28 and -2.15 ± 0.31.
For GAAUAGCAAUAUUACGGUAU the same measures were -3.54 ± 0.18 and -1.32 ± 0.16.
As for UGAAAGCAAUAUUACGGUAG, the “self-splicing fitness (ln)” value was -0.656 ± 0.06 (30 °C) and -0.113 ± 0.088 (37 °C).
For the sequence AAAAAGCAAUAUUACGUGCU, the “self-splicing fitness (ln)” value by setting is: (30 °C) -1.68 ± 0.076; (37 °C) -0.538 ± 0.079.
For CAACAGCAAUAUUACGACGA the same measures were -0.955 ± 0.075 and 0.0703 ± 0.084.
For CUCUAGCAAUAUUACGCACU the same measures were -2.77 ± 0.31 and -3.07 ± 0.25.
For CUUGAGCAAUAUUACGCAGU the same measures were -2.73 ± 0.23 and -2.64 ± 0.37.
As for AGUAAGCAAUAUUACGCCUA, the “self-splicing fitness (ln)” value runs as follows: (30 °C) -0.00931 ± 0.12; (37 °C) 0.208 ± 0.12.
For AGCUAGCAAUAUUACGCUGU the same measures were -2.86 ± 0.2 and -3.07 ± 0.32.
For AUGAAGCAAUAUUACGGCAU the same measures were -0.0745 ± 0.047 and 0.444 ± 0.063.
For CCGCAGCAAUAUUACGAGCG the same measures were -2.4 ± 0.12 and -0.494 ± 0.11.
Regarding AGGCAGCAAUAUUACGCGAA, the “self-splicing fitness (ln)” value by setting is: (30 °C) -1.54 ± 0.095; (37 °C) -0.675 ± 0.13.
Turning to CAGAAGCAAUAUUACGACCA, the “self-splicing fitness (ln)” value (30 °C) is -0.857 ± 0.24.
In the case of GAUGAGCAAUAUUACGUCAA, the “self-splicing fitness (ln)” value runs as follows: (30 °C) -3.32 ± 0.28; (37 °C) -3.44 ± 0.37.
For GGAAAGCAAUAUUACGGCGG the same measures were -2.47 ± 0.19 and -1.45 ± 0.2.
Take CCGGAGCAAUAUUACGGGUA: where the note is “30 °C”, the “self-splicing fitness (ln)” value is -3.53 ± 0.4.
With AGCUAGCAAUAUUACGUUUA, the “self-splicing fitness (ln)” value runs as follows: (30 °C) -2.69 ± 0.14; (37 °C) -1.46 ± 0.098.
For CUAUAGCAAUAUUACGUGAA the same measures were -4.01 ± 0.19 and -2.51 ± 0.21.
For UAUCAGCAAUAUUACGGGGU the same measures were -3.6 ± 0.2 and -2.48 ± 0.17.
Regarding UAUAAGCAAUAUUACGUGGC, the “self-splicing fitness (ln)” value by setting is: (30 °C) -3.47 ± 0.32; (37 °C) -2.73 ± 0.44.
For GGCCAGCAAUAUUACGCUAU the same measures were -1.35 ± 0.054 and -1.02 ± 0.063.
For GUCCAGCAAUAUUACGAUGA the same measures were -1.49 ± 0.084 and -0.996 ± 0.092.
For CGCAAGCAAUAUUACGUGGG the same measures were -4.69 ± 0.25 and -3.16 ± 0.17.
Take CCGAAGCAAUAUUACGAGAC: the “self-splicing fitness (ln)” value (37 °C) is -2.52 ± 0.31.
For UGUCAGCAAUAUUACGUCAG, the “self-splicing fitness (ln)” value was -0.398 ± 0.09 (30 °C) and -0.464 ± 0.098 (37 °C).
For GGGCAGCAAUAUUACGUUCG the same measures were -0.761 ± 0.088 and -0.431 ± 0.11.
For AUAAAGCAAUAUUACGGGGG the same measures were -2.77 ± 0.28 and -2.66 ± 0.28.
For AGGAAGCAAUAUUACGCUAU the same measures were -3.03 ± 0.21 and -2.35 ± 0.2.
Regarding GUCCAGCAAUAUUACGUUUA, the “self-splicing fitness (ln)” value by setting is: (30 °C) -0.851 ± 0.08; (37 °C) -0.0697 ± 0.076.
On to UAUCAGCAAUAUUACGAGAC, for which the “self-splicing fitness (ln)” value by setting is: (30 °C) -2.38 ± 0.33; (37 °C) -1.75 ± 0.44.
Regarding GGUGAGCAAUAUUACGAUGC, the “self-splicing fitness (ln)” value was -1.6 ± 0.13 (30 °C) and -0.514 ± 0.19 (37 °C).
